Reference: publication PMC3928684 (Biotechnology and bioengineering, 2009)

Legend:
[1] = biological target: T1, LovD (simvastatin synthase) (Aspergillus terreus, UniProt Q9Y7D1); test: HPLC at […] nm, conversion of MJSS to simvastatin sodium salt; type: biochemical; conditions: read-out: Wild Type; MJSS fixed at 2 mM, DMB-S-MMP 0.25-5 mM; 10% DMSO
T1 sequence (Q9Y7D1 1-413): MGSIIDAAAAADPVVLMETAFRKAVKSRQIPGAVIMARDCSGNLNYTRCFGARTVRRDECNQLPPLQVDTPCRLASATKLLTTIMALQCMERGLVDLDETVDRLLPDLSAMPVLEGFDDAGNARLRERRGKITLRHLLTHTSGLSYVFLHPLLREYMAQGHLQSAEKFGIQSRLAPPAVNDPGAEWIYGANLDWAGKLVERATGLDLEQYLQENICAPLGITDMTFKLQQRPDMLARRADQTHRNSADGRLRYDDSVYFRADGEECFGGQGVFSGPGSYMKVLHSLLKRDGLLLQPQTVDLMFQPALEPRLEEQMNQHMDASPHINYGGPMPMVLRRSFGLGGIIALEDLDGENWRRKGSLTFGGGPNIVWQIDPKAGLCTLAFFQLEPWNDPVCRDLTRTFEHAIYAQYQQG

[2] = system: C[C@H]1C=C2C=C[C@H](C)[C@H](CC[C@@H](O)C[C@@H](O)CC(=O)O)[C@H]2[C@@H](O)C1; test: purified protein; type: biochemical, Aspergillus terreus; conditions: DMB-S-MMP fixed at 2 mM, MJSS 0.25-5 mM; 10% DMSO
CCC(C)(C)C(=O)SCCC(=O)OC = test: purified protein; type: biochemical, Aspergillus terreus; conditions: MJSS fixed at 2 mM, DMB-S-MMP 0.25-5 mM; 10% DMSO
purified protein = substrate: C[C@H]1C=C2C=C[C@H](C)[C@H](CC[C@@H](O)C[C@@H](O)CC(=O)O)[C@H]2[C@@H](O)C1; test: purified protein; type: biochemical, Aspergillus terreus; conditions: DMB-S-MMP fixed at 2 mM, MJSS 0.25-5 mM; 10% DMSO; remark: listed apart in the source

## CCC(C)(C)C(=O)SCCC(=O)OC [DMB-S-MMP, α-dimethylbutyryl-S-methyl-3-mercaptopropionate]
[1]
  Km: 670 ± 40 µM

## LovD (simvastatin synthase) (Aspergillus terreus; C40A)
[2]
  Km: 800 ± 210 µM
  kcat: 0.0103 ± 0.00083 s⁻¹
CCC(C)(C)C(=O)SCCC(=O)OC
  Km: 630 ± 60 µM

## LovD (simvastatin synthase) (Aspergillus terreus; C40A/C60N)
[2]
  Km: 820 ± 100 µM
  kcat: 0.01 ± 0.00033 s⁻¹
CCC(C)(C)C(=O)SCCC(=O)OC
  Km: 610 ± 30 µM

## LovD (simvastatin synthase) (Aspergillus terreus; C60A)
[2]
  Km: 810 ± 190 µM
  kcat: 0.01 ± 0.00067 s⁻¹
CCC(C)(C)C(=O)SCCC(=O)OC
  Km: 580 ± 30 µM

B1: LovD (simvastatin synthase) (Aspergillus terreus) (protein)
chain: T1 sequence (Q9Y7D1 1-413)
Purified protein
  Km: 780 ± 120 µM
  kcat: 0.0103 ± 0.0005 s⁻¹
